Measured values as given in article PMC7608827 (Science Advances, 2020).
Read-outs that look alike come from different tables or passages of the source. Each block holds one molecule with its values, some of them ahead of it.

B1: CaDoc0917, dockerin module of Clostridium acetobutylicum (domain or fragment, UniProt Q97KK2 477-537, looked up)
chain: NTILGDLNDDGVVNGRDIVMMRQYLAGKTVSGIDKNALDINGDGAVNGRDLMELIKKVSNN
B2: CaCohA2, cohesin module of Clostridium acetobutylicum (domain or fragment, UniProt Q977Y4 611-759, looked up)
chain: VKNETVKLSVGTVSGNPGDTVKVPVTISQVSTPVGLICMDISYDASKFTVKDVLPNTDLVKDTDNYSFIVNTSTPGKISITFTDPTLANYPISVDGILAYLDFIINSNATAGDSALTVDPATLIVADENDKDIKDAASNGKITVTGSAP

Columns and labels:
Assay in all cases: ITC
[1] = molecular target: CaDoc0917(R49D) (Clostridium acetobutylicum)
[2] = molecular target: CaDoc0917(R16D) (Clostridium acetobutylicum)
[3] = molecular target: CaDoc0917(R49D) (Clostridium acetobutylicum); remark: listed apart in the source
[4] = molecular target: CaDoc0917(R16D) (Clostridium acetobutylicum); remark: listed apart in the source
[5] = molecular target: B2
[6] = molecular target: B2; remark: listed apart in the source
[7] = molecular target: B2; remark: listed apart in the source
[8] = molecular target: CaDoc0917(R16DE53Q) (Clostridium acetobutylicum)
[9] = molecular target: CaDoc0917(R16D/M52V) (Clostridium acetobutylicum)
[10] = molecular target: CaDoc0917(R16D/I55R) (Clostridium acetobutylicum)
[11] = molecular target: CaDoc0917(R49D/V19M) (Clostridium acetobutylicum)
[12] = molecular target: CaDoc0917(R49D/R22I) (Clostridium acetobutylicum)
[13] = molecular target: CaDoc0917(R16D/M52V) (Clostridium acetobutylicum); remark: listed apart in the source
[14] = molecular target: CaDoc0917(R16D/I55R) (Clostridium acetobutylicum); remark: listed apart in the source
[15] = molecular target: CaDoc0917(R49D/V19M) (Clostridium acetobutylicum); remark: listed apart in the source
[16] = molecular target: CaDoc0917(R49D/R22I) (Clostridium acetobutylicum); remark: listed apart in the source
[17] = molecular target: B1
[18] = molecular target: B1; remark: listed apart in the source
[19] = molecular target: B1; remark: listed apart in the source

Ka [1]: 1.57e+06 M⁻¹ | Ka [2]: 120000 M⁻¹ | Ka [3]: 2.1e+07 M⁻¹ | Ka [4]: 2.2e+07 M⁻¹
Molecule: CaCohA2 E128Q (domain or fragment)

Ka [1]: 4.24e+06 M⁻¹ | Ka [2]: 320000 M⁻¹ | Ka [3]: 2.1e+07 M⁻¹
Molecule: CaCohA2 D130N (domain or fragment)

Ka [1]: 2.32e+06 M⁻¹ | Ka [2]: 460000 M⁻¹ | Ka [3]: 1.1e+07 M⁻¹ | Ka [4]: 3.6e+06 M⁻¹
Molecule: CaCohA2 E128Q/D130N (domain or fragment)

Molecule: B1
Ka [5]: 2.4e+07 M⁻¹ | Ka [6]: 1.48e+08 M⁻¹ | Ka [7]: 1.8e+06 M⁻¹

Molecule: B2
Ka [8]: 1.93e+06 M⁻¹ | Ka [1]: 1.39e+06 M⁻¹ | Ka [9]: 290000 M⁻¹ | Ka [10]: 1.04e+06 M⁻¹ | Ka [2]: 170000 M⁻¹ | Ka [11]: 1.98e+06 M⁻¹ | Ka [12]: 180000 M⁻¹ | Ka [3]: 4.3e+07 M⁻¹ | Ka [13]: 2.9e+07 M⁻¹ | Ka [14]: 1.32e+08 M⁻¹ | Ka [4]: 1.03e+08 M⁻¹ | Ka [15]: 5.15e+08 M⁻¹ | Ka [16]: 2.1e+07 M⁻¹ | dH [17]: -4.67 ± 0.03 kcal/mol | stoichiometry N [17]: 0.862 ± 0.003 | dH [18]: -7.37 ± 0.04 kcal/mol | stoichiometry N [18]: 0.95 ± 0.002 | dH [19]: -9.54 ± 0.13 kcal/mol | stoichiometry N [19]: 1.09 ± 0.011
